Test results reported in the supplement of paper PMC11316812.
± gives the standard deviation of the averaged measurements.

What was measured:
MCF7 = assay: percentage of EdU-negative (G0-arrested) nuclei per well, 72 h; higher = more G0 arrest; conditions: reference: sequence is the full UniProt precursor, the tested protein was the secreted form or ectodomain
hTERT-HMEC = assay: as above; conditions: reference: sequence is the full UniProt precursor, the tested protein was the secreted form or ectodomain
[1] = protein concentration 0.0357143 µM
[2] = protein concentration 0.357143 µM
[3] = protein concentration 0.0225 µM
[4] = protein concentration 0.023015 µM
[5] = protein concentration 0.23015 µM
[6] = protein concentration 0.02075 µM
[7] = protein concentration 0.2075 µM
[8] = protein concentration 0.0195 µM
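Also: secreted proteins added to cultured cells, EdU pulse at the end, nuclei found by Hoechst imaging, EdU status from nuclear versus surrounding ring intensity ratio, PBS as neutral control.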

Q: For “MTPPERLFLPRVCGTTLHLLLLGLLLVLLPGAQGLPGVGLTPSAAQTARQHPKMHLAHSTLKPAAHLIGDPSKQNSLLWRANTDRAFLQDGFSLSNNSLLVPTSGIYFVYSQVVFSGKAYSPKATSSPLYLAHEVQLFSSQYPFHVPLLSSQKMVYPGLQEPWLHSMYHGAAFQLTQGDQLSTHTDGIPHLVLSPSTVFFGAFAL”, which “percentage of EdU-negative” value (MCF7; [1]) is on record?
A: Its value is 35.3 ± 2.4%.

Q: And the “percentage of EdU-negative” value (MCF7; [2])?
A: The value was 42.8 ± 0.91%.

Q: And the “percentage of EdU-negative” value (hTERT-HMEC; [1])?
A: The value was 6.4 ± 0.43%.

Q: And the “percentage of EdU-negative” value (hTERT-HMEC; [2])?
A: The value was 6.94 ± 0.51%.

Q: “MWLPRVSSTAVTALLLAQTFLLLFLVSRPGPSSPAGGEARVHVLVLSSWRSGSSFVGQLFNQHPDVFYLMEPAWHVWTTLSQGSAATLHMAVRDLVRSVFLCDMDVFDAYLPWRRNLSDLFQWAVSRALCSPPACSAFPRGAISSEAVCKPLCARQSFTLAREACRSYSHVVLKEVRFFNLQVLYPLLSDPALNLRIVHLVRDPRAVLRSREQTAKALARDNGIVLGTNGTWVEADPGLRVVREVCRSHVRIAEAATLKPPPFLRGRYRLVRFEDLAREPLAEIRALYAFTGLSLTPQLEAWIHNITHGSGPGARREAFKTSSRNALNVSQAWRHALPFAKIRRVQELCAGALQLLGYRPVYSEDEQRNLALDLVLPRGLNGFTWASSTASHPRN [Q9GZX3]” was tested. Which “percentage of EdU-negative” value (MCF7; [3]) did it give?
A: The value was 24.3 ± 0.37%.

Q: What about the “percentage of EdU-negative” value (MCF7; protein concentration 0.225 µM) of the same sequence?
A: Its value is 31 ± 0.51%.

Q: And the “percentage of EdU-negative” value (hTERT-HMEC; [3])?
A: Its value is 5.21 ± 0.9%.

Q: What about the “percentage of EdU-negative” value (hTERT-HMEC; protein concentration 0.225 µM) of the same sequence?
A: The value was 23.2 ± 3.6%.

Q: For “MLAVGCALLAALLAAPGAALAPRRCPAQEVARGVLTSLPGDSVTLTCPGVEPEDNATVHWVLRKPAAGSHPSRWAGMGRRLLLRSVQLHDSGNYSCYRAGRPAGTVHLLVDVPPEEPQLSCFRKSPLSNVVCEWGPRSTPSLTTKAVLLVRKFQNSPAEDFQEPCQYSQESQKFSCQLAVPEGDSSFYIVSMCVASSVGSKFSKTQTFQGCGILQPDPPANITVTAVARNPRWLSVTWQDPHSWNSSFYRLRFELRYRAERSKTFTTWMVKDLQHHCVIHDAWSGLRHVVQLRAQEEFGQGEWSEWSPEAMGTPWTESRSPPAENEVSTPMQALTTNKDDDNILFRDSANATSLPVQDSSSVPLPTFLVAGGSLAFGTLLCIAIVLRFKKTWKLRALKEGKTSMHPPYSLGQLVPERPRPTPVLVPLISPPVSPSSLGSDNTSSHNRPDARDPRSPYDISNTDYFFPR”, which “percentage of EdU-negative” value (MCF7; [4]) is on record?
A: The value was 25.4 ± 3%.

Q: And the “percentage of EdU-negative” value (MCF7; [5])?
A: Its value is 24.4 ± 1.3%.

Q: What about the “percentage of EdU-negative” value (hTERT-HMEC; [4]) of the same sequence?
A: Its value is 5.6 ± 1.1%.

Q: And the “percentage of EdU-negative” value (hTERT-HMEC; [5])?
A: The value was 5.05 ± 0.44%.

Q: What does the source list for “MAFVCLAIGCLYTFLISTTFGCTSSSDTEIKVNPPQDFEIVDPGYLGYLYLQWQPPLSLDHFKECTVEYELKYRNIGSETWKTIITKNLHYKDGFDLNKGIEAKIHTLLPWQCTNGSEVQSSWAETTYWISPQGIPETKVQDMDCVYYNWQYLLCSWKPGIGVLLDTNYNLFYWYEGLDHALQCVDYIKADGQNIGCRFPYLEASDYKDFYICVNGSSENKPIRSSYFTFQLQNIVKPLPPVYLTFTRESSCEIKLKWSIPLGPIPARCFDYEIEIREDDTTLVTATVENETYTLKTTNETRQLCFVVRSKVNIYCSDDGIWSEWSDKQCWEGEDLSKKTLLRFWLPFGFILILVIFVTGLLLRKPNTYPKMIPEFFCDT”?
A: percentage of EdU-negative (MCF7; [6]): 26.8 ± 0.36%; percentage of EdU-negative (MCF7; [7]): 29.3 ± 0.53%; percentage of EdU-negative (hTERT-HMEC; [6]): 4.91 ± 0.34%; percentage of EdU-negative (hTERT-HMEC; [7]): 9.86 ± 0.6%

Q: “MIIDSSRIPSFTQLHSTMTRAPLLLLCVALVLLGHVNGATVRNEDKWKPLNNPRNRDLFFRRLQAYFKGRGLDLGTFPNPFPTNENPRPLSFQSELTASASADYEEQKNSFHNYLKG [Q6UXQ4]” was tested. Which “percentage of EdU-negative” value (MCF7; [8]) did it give?
A: Its value is 24.6 ± 2.1%.

Q: What about the “percentage of EdU-negative” value (MCF7; protein concentration 0.195 µM) of the same sequence?
A: The value was 25.2 ± 1%.

Q: What about the “percentage of EdU-negative” value (hTERT-HMEC; [8]) of the same sequence?
A: The value was 4.53 ± 0.63%.

Q: And the “percentage of EdU-negative” value (hTERT-HMEC; protein concentration 0.195 µM)?
A: Its value is 7.36 ± 0.4%.

Q: “MARLALSPVPSHWMVALLLLLSAEPVPAARSEDRYRNPKGSACSRIWQSPRFIARKRGFTVKMHCYMNSASGNVSWLWKQEMDENPQQLKLEKGRMEESQNESLATLTIQGIRFEDNGIYFCQQKCNNTSEVYQGCGTELRVMGFSTLAQLKQRNTLKDGIIMIQTLLIILFIIVPIFLLLDKDDSKAGMEEDHTYEGLDIDQTATYEDIVTLRTGEVKWSVGEHPGQE” was tested. Which “percentage of EdU-negative” value (MCF7; [3]) did it give?
A: The value was 25.5 ± 0.14%.

Q: What about the “percentage of EdU-negative” value (MCF7; protein concentration 0.225 µM) of the same sequence?
A: The value was 26.8 ± 0.87%.

Q: And the “percentage of EdU-negative” value (hTERT-HMEC; [3])?
A: The value was 5.71 ± 0.54%.

Q: And the “percentage of EdU-negative” value (hTERT-HMEC; protein concentration 0.225 µM)?
A: The value was 8.95 ± 0.22%.
